{"source": "patent US20050084489A1", "about": "“Methods of preventing or treating disorders by administering and integrin alphanubeta3 antagonist in combination with an HMG-CoA reductase inhibitor or a bisphosphonate” (priority 2002, published 2005)", "molecules": {"B1": {"name": "VITAXIN®: humanized monoclonal antibody MEDI-522 (MedImmune) that immunospecifically binds to integrin αVβ3; human IgG1 subclass (antibody, chains of the INN, looked up, V domains shown)", "VH": "QVQLVESGGGVVQPGRSLRLSCAASGFTFSSYDMSWVRQAPGKGLEWVAKVSSGGGSTYYLDTVQGRFTISRDNSKNTLYLQMNSLRAEDTAVYYCARHLHGSFASWGQGTTVTVSS", "VL": "EIVLTQSPATLSLSPGERATLSCQASQSISNFLHWYQQRPGQAPRLLIRYRSQSISGIPARFSGSGSGTDFTLTISSLEPEDFAVYYCQQSGSWPLTFGGGTKVEIK"}}, "key": {"mouse integrin αVβ3": {"biological_target": "T1, mouse integrin αVβ3 (Mus musculus, UniProt O54890)", "T1 sequence (O54890 26-787)": "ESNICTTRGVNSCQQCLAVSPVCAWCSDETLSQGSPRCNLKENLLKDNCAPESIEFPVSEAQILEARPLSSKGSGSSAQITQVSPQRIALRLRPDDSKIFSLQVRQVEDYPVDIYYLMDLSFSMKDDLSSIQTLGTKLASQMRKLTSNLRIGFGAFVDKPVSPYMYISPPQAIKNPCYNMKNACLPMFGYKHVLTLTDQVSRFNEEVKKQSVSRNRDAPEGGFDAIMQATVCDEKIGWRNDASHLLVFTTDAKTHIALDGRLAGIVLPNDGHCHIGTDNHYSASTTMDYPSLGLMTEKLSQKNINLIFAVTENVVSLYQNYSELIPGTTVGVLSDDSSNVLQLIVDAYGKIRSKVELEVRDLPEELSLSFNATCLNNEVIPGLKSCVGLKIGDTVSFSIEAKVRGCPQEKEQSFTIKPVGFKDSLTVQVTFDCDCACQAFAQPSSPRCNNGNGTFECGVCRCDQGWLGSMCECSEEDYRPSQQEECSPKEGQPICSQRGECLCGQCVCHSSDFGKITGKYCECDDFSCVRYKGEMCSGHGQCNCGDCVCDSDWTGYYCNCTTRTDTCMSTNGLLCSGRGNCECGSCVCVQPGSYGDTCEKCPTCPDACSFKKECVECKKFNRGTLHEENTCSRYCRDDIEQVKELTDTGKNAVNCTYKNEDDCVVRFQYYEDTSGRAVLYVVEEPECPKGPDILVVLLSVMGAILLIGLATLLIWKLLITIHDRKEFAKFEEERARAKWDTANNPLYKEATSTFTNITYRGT", "T1 sequence (P43406 31-885 partner limits assumed)": "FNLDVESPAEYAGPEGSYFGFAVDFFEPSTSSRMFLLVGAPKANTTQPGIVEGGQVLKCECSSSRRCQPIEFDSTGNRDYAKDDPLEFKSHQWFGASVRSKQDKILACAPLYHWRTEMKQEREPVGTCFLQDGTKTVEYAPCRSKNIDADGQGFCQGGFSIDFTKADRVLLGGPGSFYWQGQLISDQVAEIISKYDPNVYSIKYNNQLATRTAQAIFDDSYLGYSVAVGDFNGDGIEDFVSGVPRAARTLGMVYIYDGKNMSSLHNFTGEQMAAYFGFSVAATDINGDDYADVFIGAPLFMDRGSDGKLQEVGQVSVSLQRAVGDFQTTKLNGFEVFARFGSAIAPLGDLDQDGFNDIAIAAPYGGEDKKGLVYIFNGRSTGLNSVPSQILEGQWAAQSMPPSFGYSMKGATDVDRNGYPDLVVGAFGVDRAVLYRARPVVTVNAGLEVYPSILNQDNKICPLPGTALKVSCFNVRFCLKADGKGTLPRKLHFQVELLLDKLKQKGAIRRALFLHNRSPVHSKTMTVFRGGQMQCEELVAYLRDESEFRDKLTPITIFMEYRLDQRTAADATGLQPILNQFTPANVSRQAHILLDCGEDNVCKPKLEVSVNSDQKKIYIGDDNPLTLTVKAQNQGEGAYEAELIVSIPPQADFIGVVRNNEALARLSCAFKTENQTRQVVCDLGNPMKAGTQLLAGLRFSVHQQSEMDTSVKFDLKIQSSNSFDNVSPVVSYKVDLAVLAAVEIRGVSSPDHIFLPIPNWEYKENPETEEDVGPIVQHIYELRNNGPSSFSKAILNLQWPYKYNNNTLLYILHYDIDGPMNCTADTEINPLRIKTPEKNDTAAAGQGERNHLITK", "T1 sequence (P43406 887-1044 partner limits assumed)": "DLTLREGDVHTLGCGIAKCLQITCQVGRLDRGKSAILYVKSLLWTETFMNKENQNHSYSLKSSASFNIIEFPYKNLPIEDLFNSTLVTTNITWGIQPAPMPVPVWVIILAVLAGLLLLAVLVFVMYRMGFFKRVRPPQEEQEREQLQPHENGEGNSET", "test": "Antibody binding to wild type mouse integrin αVβ3", "from_the_text": "(§1) The invention encompasses methods for identifying antagonists that are immunospecific for integrin αVβ3, particularly for antibodies that specifically bind to the same epitope as VITAXIN® and/or LM609. […] In certain embodiments, amino acid substitutions are made in the subunits of integrin αVβ3, for example to change the ligand specificity of the integrin αVβ3 and/or disrupt the heterodimerization of the subunit chains. Preferably the integrin αVβ3 is human. In specific embodiments, such amino acid substitutions disrupt the specific interaction of certain antagonists of integrin αVβ3 with a particular integrin αVβ3 epitope. In a preferred embodiment, the amino acid substitutions are made within regions of an integrin subunit that confers ligand binding specificity, preferably ligand binding specificity of LM609 and/or VITAXIN®, particularly residues 164-202 of human β3. Alternatively, mouse β chain residues corresponding to residues 164-202 of the human β3 chain are replaced with the residues 164-202 of the human β3 chain. Such mouse-human chimeras can be used to screen for antagonists that bind to the region 164-202 of human β3 but not to mouse integrin αVβ3.\n(§2) In addition, the invention provides methods for identifying monoclonal antibodies that bind to the heterodimerized αVβ3 but not the αV or the β3 chains when not included in a heterodimer. […]"}, "[1]": {"biological_target": "T2, modified mouse integrin αVβ3 (mouse-human chimera, human β chain residues 164-202) (Mus musculus, UniProt O54890, A208T/I198L/K199E/N204D/N207T/Q196E/S226T)", "T2 sequence (O54890 26-787 Q196E/I198L/K199E/N204D/N207T/A208T/S226T)": "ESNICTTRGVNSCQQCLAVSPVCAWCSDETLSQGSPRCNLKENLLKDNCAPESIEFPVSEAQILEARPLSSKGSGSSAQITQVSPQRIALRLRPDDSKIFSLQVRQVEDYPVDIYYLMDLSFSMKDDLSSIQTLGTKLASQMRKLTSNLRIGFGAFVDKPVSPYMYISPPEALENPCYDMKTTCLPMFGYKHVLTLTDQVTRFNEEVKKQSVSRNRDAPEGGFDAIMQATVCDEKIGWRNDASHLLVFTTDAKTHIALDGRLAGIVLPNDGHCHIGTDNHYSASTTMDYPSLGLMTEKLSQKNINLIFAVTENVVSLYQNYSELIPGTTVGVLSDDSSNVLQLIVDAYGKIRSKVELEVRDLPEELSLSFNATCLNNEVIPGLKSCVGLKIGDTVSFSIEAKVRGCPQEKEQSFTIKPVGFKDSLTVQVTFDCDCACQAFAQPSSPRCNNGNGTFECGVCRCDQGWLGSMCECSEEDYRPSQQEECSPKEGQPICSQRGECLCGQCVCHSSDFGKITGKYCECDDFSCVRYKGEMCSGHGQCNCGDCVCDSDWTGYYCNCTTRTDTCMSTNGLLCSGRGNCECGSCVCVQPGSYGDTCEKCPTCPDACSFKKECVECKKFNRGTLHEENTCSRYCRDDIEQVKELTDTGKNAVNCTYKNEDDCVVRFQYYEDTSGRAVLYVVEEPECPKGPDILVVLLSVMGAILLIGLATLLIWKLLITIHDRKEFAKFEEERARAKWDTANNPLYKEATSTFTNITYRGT", "T2 sequence (P43406 31-885 partner)": "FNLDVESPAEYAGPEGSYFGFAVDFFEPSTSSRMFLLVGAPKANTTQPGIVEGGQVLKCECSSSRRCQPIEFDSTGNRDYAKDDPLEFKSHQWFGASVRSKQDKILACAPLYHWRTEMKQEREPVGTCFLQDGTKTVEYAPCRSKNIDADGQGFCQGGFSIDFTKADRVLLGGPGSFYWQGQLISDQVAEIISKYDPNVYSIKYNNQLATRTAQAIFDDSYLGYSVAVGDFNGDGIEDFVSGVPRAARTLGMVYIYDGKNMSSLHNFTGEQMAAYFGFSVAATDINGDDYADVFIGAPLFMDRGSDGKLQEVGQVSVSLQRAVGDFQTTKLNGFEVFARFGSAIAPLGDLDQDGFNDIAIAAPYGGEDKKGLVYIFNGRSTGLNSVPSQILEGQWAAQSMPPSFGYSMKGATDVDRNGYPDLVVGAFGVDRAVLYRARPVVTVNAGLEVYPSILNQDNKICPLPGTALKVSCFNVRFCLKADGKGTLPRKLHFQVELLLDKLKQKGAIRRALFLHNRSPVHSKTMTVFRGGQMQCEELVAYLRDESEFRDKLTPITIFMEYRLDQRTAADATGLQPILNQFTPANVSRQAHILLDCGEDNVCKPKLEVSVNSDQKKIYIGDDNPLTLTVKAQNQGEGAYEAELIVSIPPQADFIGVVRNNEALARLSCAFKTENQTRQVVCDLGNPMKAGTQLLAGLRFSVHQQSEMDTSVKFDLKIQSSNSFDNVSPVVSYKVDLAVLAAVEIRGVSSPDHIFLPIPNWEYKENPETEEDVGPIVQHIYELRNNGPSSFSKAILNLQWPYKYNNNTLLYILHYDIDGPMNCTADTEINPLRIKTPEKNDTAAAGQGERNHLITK", "T2 sequence (P43406 887-1044 partner)": "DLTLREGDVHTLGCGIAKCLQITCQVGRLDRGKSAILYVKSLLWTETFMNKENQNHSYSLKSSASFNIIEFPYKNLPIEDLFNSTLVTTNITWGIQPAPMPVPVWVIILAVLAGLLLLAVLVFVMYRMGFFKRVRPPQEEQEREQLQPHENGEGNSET", "test": "Antibody binding to modified mouse integrin αVβ3 carrying amino acids 164-202 of the human β chain", "details": "mouse β chain region replaced with amino acids 164-202 of the human β chain", "from_the_text": "as §1, §2"}, "[2]": {"system": "integrin αVβ3 with mutated human β3 chain", "test": "Antibody binding to integrin αVβ3 heterodimer with human β3 residues substituted with rat residues", "from_the_text": "as §1\nIn preferred embodiments, the amino acid substitutions are made in the β3 subunit. In certain embodiments, human β3 residues are substituted with rat residues as described in Table 2. […] Such substitutions preferred examples but not limiting. Such substituted subunits are merely exemplary and not limiting. Any integrin αVβ3 regions identified to be responsible for antibody binding can be altered with substituted, deleted or inserted residues to characterize binding specificity of various antibodies and to screen for antibodies with the same a similar binding specificity.\nIn addition, the invention provides methods for identifying monoclonal antibodies that bind to the heterodimerized αVβ3 but not the αV or the β3 chains when not included in a heterodimer. […] The antibodies identified from such screening methods can be useful for the prevention, management and treatment of integrin αVβ3-mediated diseases and disorders, including but not limited to inflammatory diseases, autoimmune disorders, disorders associated with aberrant expression and/or activity of integrin αvβ3, disorders associated with abnormal bone metabolism, disorders associated with aberrant angiogenesis and cancers, or a condition or symptom associated therewith. It is also contemplated that such antibodies can be used in the methods and compositions contemplated by the present invention. […]"}}}
{"molecule": "B1", "values": [{"measurement": "binding to mouse integrin αVβ3", "setting": "mouse integrin αVβ3", "result": "do not bind"}, {"measurement": "binding to modified mouse integrin αVβ3", "setting": "[1]", "result": "do bind"}, {"measurement": "effect of β3 mutation on antibody binding to integrin αVβ3", "setting": "[2]; Mutation A: Glu to Gln at position 171 (E171Q)", "result": "disrupts binding"}, {"measurement": "effect of β3 mutation on antibody binding to integrin αVβ3", "setting": "[2]; Mutation B: Leu and Glu to Ile and Lys at positions 173 and 174 (L173I, E174K)", "result": "disrupt binding"}, {"measurement": "effect of β3 mutation on antibody binding to integrin αVβ3", "setting": "[2]; Mutations A and C combined (three substituted residues)", "result": "disrupts binding"}, {"measurement": "effect of β3 mutation on antibody binding to the integrin αVβ3 heterodimer", "setting": "[2]; mutation of residues 171, 173 and/or 174 of the human β3 chain", "result": "disrupt binding"}]}
